Columns and labels:
[1] = target: EDSV fibre knob (egg drop syndrome virus (EDSV)); test: SPR; Biacore X100, CM5 sensor chip; fibre knobs immobilised, soluble CAR domains in solution (said for D12); 1:1 binding model
[2] = target: FAdV-4 fiber1 knob (fowl adenovirus 4 (FAdV-4)); test: as above
[3] = target: FAdV-4 fiber1 knob (fowl adenovirus 4 (FAdV-4)); test: crystal structure; crystal in 20% (w/v) PEG 4000 and 0.15 M potassium sulfate; one chain in the asymmetric unit, trimer by crystal symmetry
[4] = target: CELO fiber1 knob (chicken embryo lethal orphan (CELO) virus); test: SPR; Biacore X100, CM5 sensor chip; fibre knobs immobilised, soluble CAR domains in solution (said for D12); 1:1 binding model

Substance | Kd [1] [µM] | Kd [2] [µM] | stoichiometry N [3] | Kd [4] [µM] | fold weaker affinity than the D1 domain for the same knob [4] [fold]
soluble CAR D1 domain (domain or fragment) | 2.76 | 7.42 |  |  | 
soluble CAR D12 (domain or fragment) | 2.67 | 0.868 |  |  | 
FAdV-4 fiber1 knob (domain or fragment) |  |  | 3 |  | 
soluble CAR D2 domain (domain or fragment) | 4.77 | 6.29 |  | 11200 | 1000

From article PMC10875832
